Test results: PMC9045250

B1: monoclonal antibody 18A3 against CD2V (antibody, V domains shown)
VH: MVKPGASVKISCKASGYSFTSYYIHWVKQRPGQGLEWIGWIFPGSGNTKYNEKFKGKATLTADTSSSTAYMQLSSLTSEDSAVYFCAQTGRVFAYWGQGTTVTVSSK
VL: MTQSPSSLSASLGERVSLTCRASQEISGYLSWLQQKPDGTIKRLIYAASTLDSGVPKRFSGSRSGSDYSLTISSLESEDFADYYCLQYASYPWTFGGGTKLESNGE
B2: monoclonal antibody 13G11 against CD2V (antibody, V domains shown)
VH: MIMVQSQESGPDLVKPSQSLSLTCTVTGYSITSGYSWHWIRQFPGNKLEWMGYIHYSGVTNYNPSLKSRISITRDTSKNQFFLQLNSVTTEDTATYYCARAPLYYGNYVWFSYWGQGTTVTVSSK
VL: MTCDIELTQSPASLSASVGETVTITCRASGNIHNYLAWYQQKQGKSPQLLVYNAKTLADGVPSRFSGSGSGSQYSLKINSLQPEDFGSYYCQHFWSTPWTFGGGTKLENQTDK

Biological target: no. 14 short peptide of the CD2V extracellular region (147-161) (African swine fever virus (China/2018/AnhuiXCGQ))
Experiment: ELISA
Conditions: remark: other sources report otherwise

Row | Binder | OD450
1 | B1 | > 1 OD450
2 | B2 | > 1 OD450
